Results from US10900903B2, “Protein structure analysis based on red-edge excitation shift (REES) spectroscopy” (UNIVERSITY OF BATH, priority 2016, dated 2021).
Each block holds one compound with its values, some of them ahead of it.

Experiments:
[1] = QUBES of mAb unfolding in urea; type: physicochemical
Method: Changes in protein structure are accompanied by a change in the equilibrium of conformational states. It has been previously found with a model system, a ‘hub’ protein (described above), that by quantitating the curvature in REES data it is possible to capture information on unfolded states and ligand induced conformational change. It was explored whether the sensitive detection of differences in REES data could be useful for detecting subtle changes in protein structure in mAbs. It is tested whether the QUBES data can be used to identify unfolding and aggregation of the mAbs since these are key issues facing the development of biopharmaceuticals. […] The formation of soluble aggregates is monitored in the thermally denatured mAbs by dynamic light scattering (DLS), shown in FIG. 19.
The observed variance in the QUBES values for the denatured mAbs (FIG. 14A) may reflect the differing extent of unfolding or aggregation for each of the samples and the specific nature of the unfolded or aggregated states. […] The data therefore illustrate that these metrics ignore early stage changes to protein structure that are not captured by simple steady-state fluorescence emission measurements.
All fluorescence measurements were performed using a Perkin Elmer LS50B Luminescence Spectrometer (Perkin Elmer, Waltham, Mass., USA) connected to a circulating water bath for temperature regulation (±1° C.). […]

NEMO = biological target: T1, NEMO (Homo sapiens, UniProt Q9Y6K9); assay: REES of NEMO W6 on ligand binding (peptides, poly-ubiquitin); settings: for R (fit to Eq 1), relative / A (REES magnitude, fit to Eq 2): relative to NEMO alone, binding partners; for A (REES magnitude, fit to Eq 2): peptides 1 mM, poly-ubiquitin 1 μM
T1 construct: Full length human NEMO was expressed and purified essentially as described previously [23]; made in house
T1 sequence (Q9Y6K9 whole entry): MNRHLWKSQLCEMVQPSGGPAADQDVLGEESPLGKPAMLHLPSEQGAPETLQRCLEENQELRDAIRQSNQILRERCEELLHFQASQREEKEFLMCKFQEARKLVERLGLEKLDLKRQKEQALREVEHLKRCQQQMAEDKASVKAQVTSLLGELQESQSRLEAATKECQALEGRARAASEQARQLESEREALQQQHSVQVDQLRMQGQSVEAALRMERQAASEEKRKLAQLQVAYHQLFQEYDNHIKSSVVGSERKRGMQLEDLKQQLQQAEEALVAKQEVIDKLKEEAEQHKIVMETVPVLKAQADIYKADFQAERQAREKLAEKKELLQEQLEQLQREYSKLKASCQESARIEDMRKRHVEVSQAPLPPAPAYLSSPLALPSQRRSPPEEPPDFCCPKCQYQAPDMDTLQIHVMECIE
From the text: Having established that the REES effect, specifically the use of Eq 2, can be used as a proxy for the protein free energy landscape, how the NEMO REES signal varies upon ligand binding is considered. […] The REES data for NEMO ligand bound states are shown in FIGS. 6A and 6B with the solid lines representing the fit to Eq 2. The resulting extracted values of A from Eq 2 are given in Table 1 and also as an inset bar chart in FIG. 6. For clarity, the relative change in R and A compared to NEMO alone is reported, extracted from Eq 1 and 2, respectively.
The IKKβ peptide (termed the NEMO binding domain, NBD) contains two Trp residues and so is not suitable for the present study as the signal from the peptide would confound the analysis of the single NEMO Trp. […] From Table 1 and FIG. 5A there is a significant difference in the magnitude of A depending on the ligand bound form of NEMO. […] If the ligand binding data shown in FIG. 5A is fitted to the simple linear function described by Eq 1 a different trend is found. […] Instead the major difference to is in the curvature of the data and this is captured by the use of Eq 2.
NEMO comprises a specific domain that non-covalently binds poly-ubiquitin. […] Poly-ubiquitin is found as a range of chain-lengths in the cell and evidence has previously been provided from ANS binding studies that NEMO undergoes different conformational change depending on the chain-length of non-covalently bound poly-ubiquitin [23]. The REES effect on NEMO W6 is explored in the presence of both short (4-mer; Ub4) and long (10-mer; Ub10) poly-ubiquitin chains, as shown in FIG. 6B. From the resulting values of A, given in Table 1, Ub4 binding gives a decrease in A (A=0.77±0.05), but Ub10 gives an increase (A=1.23±0.1). […] The absolute magnitude of the REES difference is small.
Full length human NEMO was expressed and purified essentially as described previously. Purified protein was dialysed extensively into a buffer comprising 50 mM Tris-Cl pH 8.0, 50 mM NaCl and 5 mM DTT. All measurements were made in this buffer unless otherwise stated. IKK-β and IκBα peptides were commercially synthesised by Genscript, having a purity of >98% and are of the sequence […] and […], respectively. The IKK-β peptide was modified such that the two native Trp residues were replaced with Phe residues. M1-linked poly-ubiquitin was purchased from Viva Bioscience. Staphylococcus aureus immune modulator protein fragment Sbi-III-IV K173A was expressed and purified essentially as described previously. Protein concentration used was between 1 and 5 μM. Peptide concentrations were 1 mM and poly-ubiquitin concentrations were 1 μM.
All fluorescence measurements were performed using a Perkin Elmer LS50B Luminescence Spectrometer (Perkin Elmer, Waltham, Mass., USA) connected to a circulating water bath for temperature regulation (±1° C.). Samples were incubated for 5 minutes at the given conditions prior to recording measurements. Measurements were performed at 10° C., unless otherwise stated. Excitation and emission slit widths were 5 nm except for pressure experiments where they were 10 nm. The larger slit width was required due to the optical setup of the pressure cell to ensure a […] signal-to-noise for the W6 emission signal. For NEMO red edge excitation scans, tryptophan emission was monitored from 315 to 550 nm. […] For red edge excitation scans, tyrosine emission was monitored from 294 to 400 nm, with the excitation wavelength set at 274 nm. […]

[2] = REES of NEMO W6 Trp emission: native, denatured, crowded; type: physicochemical; settings: for A (REES magnitude, fit to Eq 2) / R (fit to Eq 1), relative: relative to NEMO alone; for A (REES magnitude, fit to Eq 2) / R (fit to Eq 1), relative / R0: native; for A (REES magnitude, fit to Eq 2): denatured (6M guanidine), crowded (Sbi 20 mg/ml); for R (fit to Eq 1), relative / R0: denatured, crowded; for R0: y-intercept of Eq 2 fit
Method: Typically the magnitude of the steady-state REES phenomenon is reported as the simple difference in CSM or ΔλEm^max. From FIG. 1, it is observed that a significant red shift in the emission spectra, with an increase in CSM of 17.7 nm and an increase in ΔλEm^max of 15 nm from λex 292-310 nm. Essentially the data are treated by the linear function: CSM=Rλex+CSM0 Eq 1.
Where R is the REES magnitude expressed as the change in CSM per nm of the excitation wavelength, λex.
The REES data in FIG. 2 can be best represented by a Gaussian probability distribution of the form:
Where A is the area, w is the full width at half-maximal (fwhm), m is the mid-point and R0 is the y-intercept and m=λREES^max, where λREES^max is the excitation wavelength that gives the largest change in the emission peak wavelength. The data in FIG. 2 are fit to Eq 2 and illustrate the low energy excitation at the red edge of the protein absorption spectrum. The fit of Eq 2 to the experimental data is excellent and captures the expected relationship described above.
In this case, the solvent relaxation will be very rapid and no REES effect observed, effectively because there is one discrete solvation state (fully solvated). NEMO is incubated in 6M guanidine to denature the protein and the corresponding change in the center of spectral mass (CSM) versus λex is shown in FIG. 3. The use of CSM is favoured instead of the magnitude of ΔλEm^max as this metric gives a more robust REES signal and the magnitude of may be highly error prone. However the results using ΔλEm^max are essentially the same. A decrease and red-shift in Trp emission is typically grossly correlated with denaturation of proteins. […] Note that this is not the REES effect but reflective of the solvent exposure of NEMO W6 on denaturation. […] Fitting to Eq 2 also gives a large decrease in the REES effect, A=0.37±0.4. The relative change in the REES effect is similar using either approach and this indicates strongly that a fitting approach using Eq 2 is robust.
Macromolecular crowding is a key feature of the intracellular milieu arising from the very high concentrations of other species in the cytosol. Crowding reduces the available solvent for other molecules in solution through the excluded volume effect, which effectively increase the concentration of, for example, protein and restricts the accessible conformational states through hard-core repulsions between the crowding agent and the protein. Macromolecular crowding can alter protein conformation, typically inducing folding and stabilization. Crowding therefore potentially provides a means to explore the contrasting physical effect of denaturation on the REES effect, where the protein is more folded/stabilized. A protein has been used as the crowding agent, Sbi (reported above), instead of a synthetic crowding agent since protein is much more consistent with the intracellular environment. […] Incubating NEMO with a high concentration of Sbi (20 mg/ml) gives a dramatic change to the both the absolute Trp emission and also the REES effect as shown in FIG. 3. […] Intriguingly, the REES effect is much larger in the crowded environment giving a relative increase in A of 2.24±0.51. […] This is consistent with the putative molecular model of NEMO activity that is based on allosterically regulated NEMO conformational change. Below, the potential mechanistic role of an increased number of available conformational states with respect to ligand interactions is described.
Full length human NEMO was expressed and purified essentially as described previously. Purified protein was dialysed extensively into a buffer comprising 50 mM Tris-Cl pH 8.0, 50 mM NaCl and 5 mM DTT. All measurements were made in this buffer unless otherwise stated. IKK-β and IκBα peptides were commercially synthesised by Genscript, having a purity of >98% and are of the sequence […] and […], respectively. […]

[3] = High-pressure REES measurements; type: physicochemical; settings: buffered solution, any pressure
From the text: The CSM value is rather larger than reported for the denaturation study above (FIGS. 3A and 3B) and this is due to a different spectral window used to calculate the CSM for the pressure studies. This was necessary due to the optical setup of the pressure cell. […] Fitting the REES data to Eq 4 gives the pressure dependence of A, shown in FIG. 4D as the change in the fraction of A across the pressure range. […] The pressure dependence data can be adequately fit to a simple, phenomenological model that implies a single transition between two states with changing hydrostatic pressure as used previously:
Where Rp=83.13 cm3 mol^−1 bar K^−1 when the pressure, p, is measured in bar, K0 is the equilibrium constant for the change in the relative population of the ith conformational state represented by the magnitude of A from Eq 4, extrapolated to 0 bar and ΔVA is the apparent difference in the volume associated with this equilibrium transition.
The difference in sign is simply attributable to relative change in direction of the specific to signal. What is important is that the magnitude of ΔV is much larger for the REES effect compared to W6 emission. Indeed, this magnitude of pressure dependence is more consistent with global metrics of NEMO conformational change previously measured using the pressure dependence of 8-anilino naphthalene sulfonate (ANS) emission. The REES signal may therefore be reflective of the broader equilibrium of NEMO conformational states at sites distal to W6. […] The key finding from the pressure data in the present context is that the REES effect itself is pressure-dependent with the magnitude of A increasing with pressure.
An ISS high-pressure cell (ISS, Champaign, UL, USA), fitted with a custom fiber optic mounting to the fluorimeter and connected to a circulating water bath for temperature regulation was used to record all high-pressure measurements.
Where fi is the measured fluorescence intensity and λem is the emission wavelength. The importance of using a consistent wavelength range when reporting CSM data is stressed, as the magnitude will be dependent on the wavelength range chosen.

Compound: Tocilizumab: humanised therapeutic mAb
- urea concentration at which a significant increase in CSM0 is observed [1]: 7 M
- QUBES value shift on unfolding ([1]; urea): larger R and smaller A value

Compound: IκBα peptide: peptide mimic of IκBα, sequence DDRHDSGLDSMKD
- R (fit to Eq 1), relative (NEMO): 1.35±0.1
- A (REES magnitude, fit to Eq 2) (NEMO): 0.85±0.04

Compound: NEMO + Sbi: NEMO incubated with a high concentration of Sbi (20 mg/ml) as crowding agent
- Trp emission intensity compared to NEMO in the absence of Sbi ([2]; Sbi 20 mg/ml): ~1.4 times
- A (REES magnitude, fit to Eq 2) [2]: 2.24±0.51
- R (fit to Eq 1), relative [2]: 1.07 ± 0.12
- R0 [2]: 360.5±0.45 nm

Compound: NEMOdenat: NEMO incubated in 6M guanidine to denature the protein
- REES effect (in words) [2]: dramatically reduced REES effect
- R (fit to Eq 1), change in CSM per nm of λex ([2]; absolute value): 0.22±0.02
- A (REES magnitude, fit to Eq 2) [2]: 0.37 ± 0.4
- A (REES magnitude, fit to Eq 2) ([2]; listed as Denatured NEMO): 0.37±0.4
- R (fit to Eq 1), relative [2]: 0.21 ± 0.01
- R (fit to Eq 1), relative ([2]; listed as Denatured NEMO): 0.23±0.1
- R0 [2]: 375.0 ± 0.5 nm
- R0 ([2]; listed as Denatured NEMO): 375±0.5 nm
- increase in CSM (red shift) ([2]; λex 292-310 nm): 4 nm

- decrease in W6 emission on binding (NEMO): ~50%
Compound: NBD-Phe: IKK-β peptide (NEMO binding domain), two Trp replaced with Phe, sequence TALDFSFLQTE
- R (fit to Eq 1), relative (NEMO): 0.98±0.1
- A (REES magnitude, fit to Eq 2) (NEMO): 1.33±0.3

Compound: N[C@@H](Cc1c[nH]c2ccccc12)C(=O)O [free Trp, tryptophan, reference compound]
- REES effect under pressure (in words) [3]: No REES effect is observed
